Experimental data reported in US20220089710A1, “Method of Treating Signs and Symptoms of Osteoarthritis” (Pfizer Inc., priority 2019, published 2022).

System: patients with moderate to severe OA of the hip or knee
Experiment: Example 1: safety assessments (adverse events, neurological assessments)
Assay type: in vivo, human
Conditions: SC 2.5 mg and 2.5/5 mg regimens
Source text: Safety assessments included: adverse event (AE) reporting; laboratory testing; 12-lead electrocardiogram; sitting vital signs; orthostatic blood pressure assessments; physical examinations; musculoskeletal examinations; neurological examinations reported using the Neuropathy Impairment Score (Dyck et al., Neurology. 1995; 45(6):1115-1121); Survey of Autonomic Symptoms scores (Zilliox et al., Neurology. 2011; 76(12):1099-1105); adjudication of joint safety events including total joint replacements (TJRs); and anti-drug antibody assessments. AEs were coded using MedDRA v21.0. AE severity and relationship to study treatment were assessed by the investigator.
Patients meeting protocol-specified criteria were further evaluated for peripheral neuropathy and/or sympathetic autonomic neuropathy. Neurological examinations were conducted at all clinic visits by investigators or designated physicians who received protocol-required training, and findings were recorded using the Neuropathy Impairment Score (Dyck et al).

In the case of “tanezumab: humanized immunoglobulin G Type 2 (IgG2) monoclonal antibody directed against human nerve growth factor (NGF); SEQ ID NOs: 9 or 11 and 10”, the “overall safety and tolerability” value is reported as “generally safe and well-tolerated”.
